Experimental data from patent publication US20140161799A1 (ARCH ONCOLOGY, published 2014).

T1: mouse CD47 (mouse, UniProt Q61735 19-303)
T1 construct: whole, on cells; also called CD47 on mouse red blood cells
T1 sequence (looked up): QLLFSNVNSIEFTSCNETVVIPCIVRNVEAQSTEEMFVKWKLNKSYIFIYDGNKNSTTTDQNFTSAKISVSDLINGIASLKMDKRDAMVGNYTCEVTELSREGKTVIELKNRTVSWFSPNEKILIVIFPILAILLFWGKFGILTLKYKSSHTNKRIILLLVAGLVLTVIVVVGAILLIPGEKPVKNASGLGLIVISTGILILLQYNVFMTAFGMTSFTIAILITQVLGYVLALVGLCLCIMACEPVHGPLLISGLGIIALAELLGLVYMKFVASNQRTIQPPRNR

T2: pig CD47 (pig, UniProt Q9GKE8 19-303)
T2 construct: whole, on cells; also called CD47 on pig red blood cells
T2 sequence (looked up): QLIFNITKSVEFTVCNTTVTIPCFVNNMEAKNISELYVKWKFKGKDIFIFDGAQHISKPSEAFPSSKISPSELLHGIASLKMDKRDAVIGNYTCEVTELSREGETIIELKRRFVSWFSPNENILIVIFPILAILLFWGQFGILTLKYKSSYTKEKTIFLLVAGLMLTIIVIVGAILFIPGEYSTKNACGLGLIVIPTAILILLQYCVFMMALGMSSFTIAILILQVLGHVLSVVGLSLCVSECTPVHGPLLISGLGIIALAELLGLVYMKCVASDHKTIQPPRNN

T3: rat CD47 (rat, UniProt P97829 19-303)
T3 construct: whole, on cells; also called CD47 on rat red blood cells
T3 sequence (looked up): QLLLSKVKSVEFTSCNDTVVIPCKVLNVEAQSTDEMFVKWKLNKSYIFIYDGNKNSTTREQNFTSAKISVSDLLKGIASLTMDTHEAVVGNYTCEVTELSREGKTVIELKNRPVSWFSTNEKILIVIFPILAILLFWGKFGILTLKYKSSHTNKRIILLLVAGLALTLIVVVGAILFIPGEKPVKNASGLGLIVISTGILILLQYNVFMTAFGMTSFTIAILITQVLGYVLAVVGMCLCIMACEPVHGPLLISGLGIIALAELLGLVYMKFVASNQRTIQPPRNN


What was measured:
Experiment in all cases: flow cytometry on RBCs, antibody 10 ng/ml
human CD47 = biological target: T4, human CD47 (human, UniProt Q08722 19-323)
T4 construct: whole, on cells; also called CD47 on human red blood cells
T4 sequence (Q08722 19-323): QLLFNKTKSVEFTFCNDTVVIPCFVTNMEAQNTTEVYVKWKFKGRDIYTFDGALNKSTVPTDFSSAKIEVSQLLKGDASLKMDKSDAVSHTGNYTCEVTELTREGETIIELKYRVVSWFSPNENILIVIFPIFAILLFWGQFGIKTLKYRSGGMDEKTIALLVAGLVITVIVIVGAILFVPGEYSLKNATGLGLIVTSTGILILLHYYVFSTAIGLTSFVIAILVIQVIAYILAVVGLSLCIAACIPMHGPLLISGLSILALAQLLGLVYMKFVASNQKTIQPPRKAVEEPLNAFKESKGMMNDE
Procedure: (§1) Cross species reactivity of humanized antibodies of the present invention is determined using freshly isolated red blood cells (RBCs), which display CD47 on their surface, from human, mouse, rat, and pig according to the methods disclosed in Kamel et al. (2010) Blood. Transfus. 8(4):260-266.
(§2) RBCs are incubated for 60 minutes on ice with tissue culture supernatants containing the secreted humanized antibodies at a concentration of 10 ng/ml in a solution of phosphate buffered saline, pH 7.2, 2.5 mM EDTA (PBS+E). Cells are then washed with cold PBS+E, and incubated for an additional hour on ice with FITC labeled donkey anti-human antibody (Jackson Immuno Research Labs, West Grove, Pa.; Catalogue #709-096-149) in PBS+E. Cells are then washed with PBS+E, and antibody binding is analyzed using a BD FACSAria Cell Sorter (Becton Dickinson) or a C6 Accuri Flow Cytometer (Becton Dickinson). Antibody binding is quantitated by comparison of mean fluorescence values relative to that of chimeric antibody >VxP037-01LC (SEQ ID NO:7))/>VxP037-01HC (SEQ ID NO:57). The mean fluorescence value for each antibody is divided by the mean fluorescence value for the chimeric antibody.

mouse CD47 = biological target: T1, mouse CD47
Procedure: as §1, §2

pig CD47 = biological target: T2, pig CD47
Procedure: as §1, §2

rat CD47 = biological target: T3, rat CD47
Procedure: as §1, §2

Row | Binder | mean fluorescence relative to chimeric antibody (human CD47) | mean fluorescence relative to chimeric antibody (mouse CD47) | mean fluorescence relative to chimeric antibody (pig CD47) | mean fluorescence relative to chimeric antibody (rat CD47)
1 | pVxK7b-037-hum20-LC/pVxK7b-037-hum20-HC (antibody, human IgG1, V domains shown, Full-length human IgG1/kappa in CHO supernatant; Variable entries end within framework 4 (...FGQG / ...WGQG); also called Clone 20) VH: QITLKESGPTLVKPTQTLTLTCTFSGYTFTNYYVFWVRQAPGQGLEWMGDINPVNGDTNFNEKFKNRVTITADKSTSTAYMELSSLRSEDTAVYYCARGGYTMDYWGQG VL: DIVMTQTPLSLPVTPGEPASISCRSSQSLVHSNGNTYLHWYLQKPGQSPQLLIYKVSYRFSGVPDRFSGSGSGTDFTLKISRVEAEDVGVYYCSQNTHVPRTFGQG | 1.3 fold of chimera | 1.5 fold of chimera | 1.7 fold of chimera | 1.9 fold of chimera
2 | pVxK7b-037-hum22-LC/pVxK7b-037-hum22-HC (antibody, human IgG1, V domains shown, Full-length human IgG1/kappa in CHO supernatant; Variable entries end within framework 4 (...FGQG / ...WGQG); also called Clone 22) VH: QVQLQESGPGLVKPSQTLSLTCTVSGYTFTNYYVFWVRQARGQRLEWIGDINPVNGDTNFNEKFKNRLTISKDTSKNQVVLTMTNMDPVDTATYYCARGGYTMDYWGQG VL: EIVLTQSPATLSVSPGERATLSCRSSQSLVHSNGNTYLHWYQQKPGQAPRLLIYKVSYRFSGVPSRFSGSGSGTDFTFTISSLEAEDAATYYCSQNTHVPRTFGQG | 1.1 fold of chimera | 1.2 fold of chimera | 1.4 fold of chimera | 2.8 fold of chimera
